Measurements taken from patent US20210008161A1 (CRISPR THERAPEUTICS, published 2021).

Target: p53-binding protein 1 (53BP1) (human, UniProt Q12888 1-1972)
Test: cell-based or functional assay

Sequence of p53-binding protein 1 (53BP1) (Q12888 whole entry): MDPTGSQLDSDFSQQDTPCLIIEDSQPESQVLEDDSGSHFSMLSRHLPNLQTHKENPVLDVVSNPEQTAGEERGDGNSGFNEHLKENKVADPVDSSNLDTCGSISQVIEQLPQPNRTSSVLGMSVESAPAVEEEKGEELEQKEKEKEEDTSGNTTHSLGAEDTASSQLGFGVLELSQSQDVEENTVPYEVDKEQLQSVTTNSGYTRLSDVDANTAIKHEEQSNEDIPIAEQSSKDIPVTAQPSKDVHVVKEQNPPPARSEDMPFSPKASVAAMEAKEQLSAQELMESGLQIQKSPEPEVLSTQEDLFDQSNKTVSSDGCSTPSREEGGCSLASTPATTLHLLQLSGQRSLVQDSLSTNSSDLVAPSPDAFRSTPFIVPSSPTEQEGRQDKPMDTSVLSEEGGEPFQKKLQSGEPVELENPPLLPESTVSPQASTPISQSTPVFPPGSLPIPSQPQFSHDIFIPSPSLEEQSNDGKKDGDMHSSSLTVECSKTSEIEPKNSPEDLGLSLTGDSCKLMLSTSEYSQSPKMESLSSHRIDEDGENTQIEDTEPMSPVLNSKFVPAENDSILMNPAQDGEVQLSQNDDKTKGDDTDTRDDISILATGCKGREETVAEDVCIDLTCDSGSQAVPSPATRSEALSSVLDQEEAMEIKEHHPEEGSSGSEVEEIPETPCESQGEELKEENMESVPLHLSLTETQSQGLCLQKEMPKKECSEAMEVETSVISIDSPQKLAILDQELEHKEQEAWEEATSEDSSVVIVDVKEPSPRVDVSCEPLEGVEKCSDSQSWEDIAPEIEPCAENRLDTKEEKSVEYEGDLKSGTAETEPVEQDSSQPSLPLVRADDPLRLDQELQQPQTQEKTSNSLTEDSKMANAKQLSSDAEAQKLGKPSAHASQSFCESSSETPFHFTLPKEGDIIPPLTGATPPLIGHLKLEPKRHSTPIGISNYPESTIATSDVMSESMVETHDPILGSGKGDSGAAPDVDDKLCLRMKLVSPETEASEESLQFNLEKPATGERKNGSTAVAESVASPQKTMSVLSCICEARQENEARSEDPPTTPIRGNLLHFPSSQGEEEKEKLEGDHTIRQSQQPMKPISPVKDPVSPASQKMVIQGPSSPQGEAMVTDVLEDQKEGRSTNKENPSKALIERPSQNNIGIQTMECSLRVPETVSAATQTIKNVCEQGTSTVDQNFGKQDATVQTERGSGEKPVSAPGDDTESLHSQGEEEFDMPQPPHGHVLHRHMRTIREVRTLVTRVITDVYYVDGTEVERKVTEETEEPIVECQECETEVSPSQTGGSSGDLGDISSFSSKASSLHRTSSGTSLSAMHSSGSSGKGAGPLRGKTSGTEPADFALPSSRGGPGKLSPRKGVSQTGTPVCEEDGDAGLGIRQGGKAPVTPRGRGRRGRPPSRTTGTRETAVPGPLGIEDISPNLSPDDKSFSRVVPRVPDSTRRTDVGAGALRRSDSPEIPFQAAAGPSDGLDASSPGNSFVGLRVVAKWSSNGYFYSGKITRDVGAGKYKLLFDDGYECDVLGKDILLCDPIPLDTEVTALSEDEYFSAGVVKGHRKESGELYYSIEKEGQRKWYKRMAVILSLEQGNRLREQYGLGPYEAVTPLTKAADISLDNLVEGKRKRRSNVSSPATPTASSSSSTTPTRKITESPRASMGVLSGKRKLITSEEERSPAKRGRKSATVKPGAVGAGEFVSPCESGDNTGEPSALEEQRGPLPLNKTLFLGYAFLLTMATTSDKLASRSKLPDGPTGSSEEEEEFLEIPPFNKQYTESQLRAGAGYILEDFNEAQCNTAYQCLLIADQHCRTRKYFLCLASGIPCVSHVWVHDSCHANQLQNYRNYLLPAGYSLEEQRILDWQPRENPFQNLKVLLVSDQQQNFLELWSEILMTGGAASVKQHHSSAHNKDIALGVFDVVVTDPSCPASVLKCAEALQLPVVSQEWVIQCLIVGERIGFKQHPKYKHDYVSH

B1: i53 polypeptide (polypeptide inhibitor of 53BP1) (designed binder)
chain: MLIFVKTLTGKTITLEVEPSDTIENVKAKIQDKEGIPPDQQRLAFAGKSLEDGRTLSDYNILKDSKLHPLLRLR
In the case of B1, the “HDR efficiency (GFP insertion at the HBB locus, CD34-expressing LT-HSPCs, GFP fluorescence)” value is reported as ~1.3 fold, the “INDEL frequency at the HBB locus relative to RNP+AAV (CD34-expressing LT-HSPCs, TIDE analysis)” value is reported as 1.7 fold and the “fold increase in HDR at the HBB locus over RNP+AAV alone (CD34-expressing LT-HSPCs, NGS assay)” value is reported as 1.4 fold. For the same binder, the “fold increase in HDR efficiency over RNP+AAV alone (LT-HSPCs mobilised with Mozobil+GCSF)” value was ~1.5 fold.
